According to patent US20220267453A1 (SAITAMA MEDICAL UNIVERSITY, published 2022):
Positions count from the first letter of the chain named.

Columns and labels:
[1] = molecular target: T1, Human ALK2-His (Cat. #10227-H088) from Sino Biological Inc. (human, UniProt Q04771 21-123); test: ELISA of hybridoma culture supernatant on antigen immobilized at 1 µg/ml (selection of hybridomas)
T1 construct: Bought recombinant protein; also called the antigen; not shown: His tag
T1 sequence: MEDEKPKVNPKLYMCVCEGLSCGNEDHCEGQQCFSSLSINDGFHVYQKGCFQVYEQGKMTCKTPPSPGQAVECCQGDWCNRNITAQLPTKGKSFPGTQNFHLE
Procedure: One week after the cell fusion, using each culture supernatant, clones recognizing human ALK2-His used as the antigen were selected by the enzyme-linked immunosorbent assay (ELISA), and clones recognizing human ALK1-His (Sino Biological Inc.) were excluded. ELISA was performed as follows.
First, the antigen diluted to 1 μg/ml with PBS was immobilized onto a 96-well ELISA plate (NUNC, Cat. #442404) for 2 hours at room temperature or overnight at 4° C. The immobilized solution was removed, and the plate was blocked with a 0.5% skim milk solution dissolved in PBS for 30 minutes at room temperature. Next, the above-described culture supernatant of hybridomas was added, and the plate was left for 1 hour at room temperature. After the plate was washed, an ALP-labeled anti-rat IgG antibody (SAB, Inc.) diluted with a 0.5% skim milk solution to 1:2500 was added, and the plate was further left for 1 hour at room temperature. After the plate was washed, a phenyl phosphate substrate was reacted at room temperature, and then absorbance at a wavelength of 492 nm was measured.

[2] = molecular target: T2, human ALK2(WT)-V5-His expressed in HEK293A cells (human, UniProt Q04771 21-509); test: conclusion from BMP-specific luciferase reporter assay in transfected HEK293A cells
T2 construct: Full-length receptor overexpressed by transient transfection; also called pcDEF3/human ALK2(WT)-V5-His; human ALK2(WT)-VS-His; not shown: V5-His tag of the pcDEF3 construct
T2 sequence: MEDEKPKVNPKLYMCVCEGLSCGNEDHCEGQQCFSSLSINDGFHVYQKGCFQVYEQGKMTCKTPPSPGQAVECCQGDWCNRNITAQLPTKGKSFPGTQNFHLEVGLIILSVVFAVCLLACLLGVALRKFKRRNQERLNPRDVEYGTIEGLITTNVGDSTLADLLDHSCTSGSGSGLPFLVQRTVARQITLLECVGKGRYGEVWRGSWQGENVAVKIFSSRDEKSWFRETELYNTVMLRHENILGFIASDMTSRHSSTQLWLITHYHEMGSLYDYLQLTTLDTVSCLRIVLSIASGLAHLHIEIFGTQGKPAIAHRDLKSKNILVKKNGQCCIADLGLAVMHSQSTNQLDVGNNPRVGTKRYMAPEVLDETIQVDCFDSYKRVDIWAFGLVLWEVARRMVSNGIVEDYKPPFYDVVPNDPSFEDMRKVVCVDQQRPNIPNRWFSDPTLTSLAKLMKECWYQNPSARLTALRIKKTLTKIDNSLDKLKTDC

[3] = molecular target: T3, mouse ALK2(WT)-V5-His expressed in HEK293A cells (mouse, UniProt P37172 21-509); test: as above
T3 construct: Full-length receptor overexpressed by transient transfection; also called pcDEF3/mouse ALK2(WT)-V5-His; not shown: V5-His tag of the pcDEF3 construct
T3 sequence: T2 sequence with M1V, P10Q, L121I, D162E, P310S

[4] = molecular target: T4, rat ALK2(WT)-V5-His expressed in HEK293A cells (rat, UniProt P80201 21-509); test: as above
T4 construct: the end 509 for rat is meant as the end of the entry; also called rat wild-type ALK2; pcDEF3/rat ALK2(WT)-V5-His; not shown: V5-His tag of the pcDEF3 construct
T4 sequence: T2 sequence with K5E, I39V, H44R, I83V, Q86R, T97S, L118F, L121I, D162E, P310S

[5] = molecular target: T5, ALK2 expressed in mice (C57BL/6 mouse newborn organs, tissue sections) (mouse, UniProt P37172 21-509); test: immunohistological staining of frozen sections of mouse newborns; 10 µg/ml primary antibody
T5 construct: Endogenous protein in paraformaldehyde-fixed frozen or paraffin sections of mouse newborns; not a purified protein; also called mouse ALK2 (endogenous)
T5 sequence: T2 sequence with M1V, P10Q, L121I, D162E, P310S
Procedure: C57BL/6 mouse newborns were each fixed in a 4% paraformaldehyde-phosphate buffer solution for 2 days and then freeze-embedded in O.C.T Compound (manufactured by Sakura Finetek Japan Co., Ltd.), and frozen sections were prepared with a thickness of 5 μm using a cryostat (manufactured by Leica Biosystems Nussloch GmbH, Cat. #CM3050S). The sections were washed with PBS three time and reacted with an endogenous enzyme activity blocking solution (manufactured by Vector Laboratories, Inc., Cat. #SP-6000) for 10 minutes. […] On the following day, the sections were washed with PBS-T three times and reacted with HRP-conjugated anti-rat IgG antibody ImmPRESS Reagent (manufactured by Vector Laboratories, Inc., Cat. #MP-7444) as a secondary antibody for 30 minutes at 37° C. Then, the sections were washed with PBS-T three times, and DAB color development (manufactured by Vector Laboratories, Inc., Cat. #SK-4100) was performed. After washing with distilled water, the sections were counter-stained with hematoxylin, mounted on a glass cover according to a standard method, and observed under BZ-9000 (manufactured by Keyence Corp.).

[6] = molecular target: T6, human ALK2-EGFP expressed in HEK293A cells (human, UniProt Q04771 21-509); test: conclusion from flow cytometry competition with labeled A2-27D on HEK293A cells expressing human ALK2-EGFP
T6 construct: also called pcDEF3/human ALK2-EGFP; not shown: EGFP fused to ALK2
T6 sequence: T2 sequence
Procedure: In the same manner as in Example 3, HEK293A cells were transiently transfected with pcDEF3/human ALK2-EGFP using Lipofectamine 2000 (manufactured by Thermo Fisher Scientific Inc.). After 2.5 hours, the medium was replaced with fresh 10% FBS-containing DMEM medium, and the cells were cultured overnight. On the following day, […] each of the cell suspensions adjusted to 1×10⁶ cells/mL was dispensed into a 1.5-mL microfuge and centrifuged at 500 g for 5 minutes, and then the supernatant was removed. To the cells, 100 μL of a mixed solution of Alexa fluor 647-labeled A2-27D diluted to 1 μg/mL and 10 μg/mL purified IgG was added, and the cells were left for 30 minutes at 4° C. After the cells were washed with PBS three times, fluorescence was detected by a flow cytometer (BD Accuri C6; manufactured by BD Biosciences). The intensity of EGFP expressed by the cells and the fluorescence intensity of stained Alexa flour 647 were plotted.

Measured: binding result

B1: rat anti-human ALK2 monoclonal antibody produced by the hybridoma #109 (antibody, V domains shown)
VH: EVQLVESGGDLVQPGRSMKLSCAASGFTFSNYGMAWVRQAPTKGLEWVATISYDGSGTYYRDSVEGRFTISRDNAKITLYLQMNSLRSEDTATYYCTRHGYSRVPYFDYWGQGVMVTVSS
VL: NIVLTQSPATLSVTPGESVSLSCRASQSISTNIHWYQQKSNESPRLLIKYASQSISGIPSRFSGSGSGTDFTLTINRVESEDFSIYYCQQSYSSQLTFGSGTKLEIKR
notes: Rat monoclonal antibody from a hybridoma
binds: [1]

B2: rat anti-human ALK2 monoclonal antibody produced by the hybridoma #200 (antibody, V domains shown)
VH: QVKLLQSGAALVKPGDSIRMSCKASGYTFTDYIIHWVKQSHGKSLEWIGYINPYSGGTNYNEKFKSKATLTVDKSSSTAYMEFCRLTSEDSAIYYCVRRGHDGTGFDYWGQGVMVTVSS
VL: DVVMTQTPVSLPVSLGGQASISCRSSQSLVHSNGETYLHWYLQKPGQSPQLLIYRVSNRFSGVPDRFSGSGSGTDFTLKLSRVEPEDLGDYYCLQSTHLPLTFGSGTKLEIKR
notes: Rat monoclonal antibody from a hybridoma; also called clone #200; ALK2_#200
binds: [2] | [3] | [4] | [5] | [1] | [6]
